The data set concerns the molecule itself. Briefly: negative-stain EM.

What is called stoichiometry N is a count of units in the complex or per binding partner.

B1: full-length recombinant human VPS41 (His-hVPS41) (natural protein, UniProt P49754 1-854, looked up)
chain: MAEAEEQETGSLEESTDESEEEESEEEPKLKYERLSNGVTEILQKDAASCMTVHDKFLALGTHYGKVYLLDVQGNITQKFDVSPVKINQISLDESGEHMGVCSEDGKVQVFGLYSGEEFHETFDCPIKIIAVHPHFVRSSCKQFVTGGKKLLLFERSWMNRWKSAVLHEGEGNIRSVKWRGHLIAWANNMGVKIFDIISKQRITNVPRDDISLRPDMYPCSLCWKDNVTLIIGWGTSVKVCSVKERHASEMRDLPSRYVEIVSQFETEFYISGLAPLCDQLVVLSYVKEISEKTEREYCARPRLDIIQPLSETCEEISSDALTVRGFQENECRDYHLEYSEGESLFYIVSPRDVVVAKERDQDDHIDWLLEKKKYEEALMAAEISQKNIKRHKILDIGLAYINHLVERGDYDIAARKCQKILGKNAALWEYEVYKFKEIGQLKAISPYLPRGDPVLKPLIYEMILHEFLESDYEGFATLIREWPGDLYNNSVIVQAVRDHLKKDSQNKTLLKTLAELYTYDKNYGNALEIYLTLRHKDVFQLIHKHNLFSSIKDKIVLLMDFDSEKAVDMLLDNEDKISIKKVVEELEDRPELQHVYLHKLFKRDHHKGQRYHEKQISLYAEYDRPNLLPFLRDSTHCPLEKALEICQQRNFVEETVYLLSRMGNSRSALKMIMEELHDVDKAIEFAKEQDDGELWEDLILYSIDKPPFITGLLNNIGTHVDPILLIHRIKEGMEIPNLRDSLVKILQDYNLQILLREGCKKILVADSLSLLKKMHRTQMKGVLVDEENICESCLSPILPSDAAKPFSVVVFHCRHMFHKECLPMPSMNSAAQFCNICSAKNRGPGSAILEMKK
As to B1, the “stoichiometry N” value is 2.
